{"source": "patent US20250340902A1", "about": "“GENE THERAPY FOR BVES-RELATED DISORDERS” (OHIO STATE INNOVATION FOUNDATION, priority 2022, published 2025)", "key": {"[1]": {"target": "Acetyl-CoA acetyltransferase, mitochondrial (Mus musculus) (UniProt Q8QZT1)", "test": "anti-HA co-IP from muscle, MS; CTRL 0"}, "[2]": {"target": "GTP-binding protein SAR1b (Mus musculus) (UniProt Q9CQC9)", "test": "anti-HA co-IP from muscle, MS; CTRL 0"}, "[3]": {"target": "Glutamate dehydrogenase 1, mitochondrial (Mus musculus) (UniProt P26443)", "test": "anti-HA co-IP from muscle, MS; CTRL 0"}, "[4]": {"target": "Heparin cofactor 2 (Mus musculus) (UniProt P49182)", "test": "anti-HA co-IP from muscle, MS; CTRL 0"}, "[5]": {"target": "Heterogeneous nuclear ribonucleoprotein L (Mus musculus) (UniProt Q8R081)", "test": "anti-HA co-IP from muscle, MS; CTRL 0"}, "[6]": {"target": "Multidrug resistance-associated protein 1 (Mus musculus) (UniProt O35379)", "test": "anti-HA co-IP from muscle, MS; CTRL 0"}, "[7]": {"target": "NADH dehydrogenase [ubiquinone] iron-sulfur protein 3, mitochondrial (Mus musculus) (UniProt Q9DCT2)", "sequence (Q9DCT2 36-263 limits assumed)": "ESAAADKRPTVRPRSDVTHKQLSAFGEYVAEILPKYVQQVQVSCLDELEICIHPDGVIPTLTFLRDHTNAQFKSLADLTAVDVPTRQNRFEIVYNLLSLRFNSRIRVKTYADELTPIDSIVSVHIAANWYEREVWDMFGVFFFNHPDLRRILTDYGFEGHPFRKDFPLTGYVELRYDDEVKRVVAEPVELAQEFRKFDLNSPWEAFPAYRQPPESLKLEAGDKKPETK", "test": "anti-HA co-IP from muscle, MS; CTRL 0"}, "[8]": {"target": "Nesprin-2 (Mus musculus) (UniProt Q6ZWQ0)", "test": "anti-HA co-IP from muscle, MS; CTRL 0"}, "[9]": {"target": "Obg-like ATPase 1 (Mus musculus) (UniProt Q9CZ30)", "test": "anti-HA co-IP from muscle, MS; CTRL 0"}, "[10]": {"target": "Ran GTPase-activating protein 1 (Mus musculus) (UniProt P46061)", "test": "anti-HA co-IP from muscle, MS; CTRL 0"}, "[11]": {"target": "Ribosomal protein S6 kinase alpha-2 (Mus musculus) (UniProt Q9WUT3)", "test": "anti-HA co-IP from muscle, MS; CTRL 0"}, "[12]": {"target": "Splicing factor 3A subunit 1 (Mus musculus) (UniProt Q8K4Z5)", "test": "anti-HA co-IP from muscle, MS; CTRL 0"}, "[13]": {"target": "Calcium/calmodulin-dependent protein kinase type II subunit alpha (Mus musculus) (UniProt P11798)", "test": "anti-HA co-IP from muscle, MS; CTRL 2"}, "[14]": {"target": "Caveolae-associated protein 1 (Mus musculus) (UniProt O54724)", "test": "anti-HA co-IP from muscle, MS; CTRL 2"}, "[15]": {"target": "PDZ and LIM domain protein 5 (Mus musculus) (UniProt Q8CI51)", "test": "anti-HA co-IP from muscle, MS; CTRL 2"}, "[16]": {"target": "Phosphorylase b kinase gamma catalytic chain, skeletal muscle/heart isoform (Mus musculus) (UniProt P07934)", "test": "anti-HA co-IP from muscle, MS; CTRL 2"}, "[17]": {"target": "Poly(rC)-binding protein 2 (Mus musculus) (UniProt Q61990)", "test": "anti-HA co-IP from muscle, MS; CTRL 2"}, "[18]": {"target": "Serine/arginine repetitive matrix protein 2 (Mus musculus) (UniProt Q8BTI8)", "test": "anti-HA co-IP from muscle, MS; CTRL 2"}, "[19]": {"target": "Spectrin beta chain, erythrocytic (Mus musculus) (UniProt P15508)", "test": "anti-HA co-IP from muscle, MS; CTRL 2"}, "[20]": {"target": "Succinate--CoA ligase [ADP-forming] subunit beta, mitochondrial (Mus musculus) (UniProt Q9Z2I9)", "test": "anti-HA co-IP from muscle, MS; CTRL 2"}, "[21]": {"target": "T-complex protein 1 subunit beta (Mus musculus) (UniProt P80314)", "test": "anti-HA co-IP from muscle, MS; CTRL 2"}, "[22]": {"target": "Trimeric intracellular cation channel type A (Mus musculus) (UniProt Q3TMP8)", "test": "anti-HA co-IP from muscle, MS; CTRL 2"}, "[23]": {"target": "Tripartite motif-containing protein 72 (Mus musculus) (UniProt Q1XH17)", "test": "anti-HA co-IP from muscle, MS; CTRL 2"}, "[24]": {"target": "Very-long-chain enoyl-CoA reductase (Mus musculus) (UniProt Q9CY27)", "test": "anti-HA co-IP from muscle, MS; CTRL 2"}, "[25]": {"target": "Voltage-dependent L-type calcium channel subunit beta-1 (Mus musculus) (UniProt Q8R3Z5)", "test": "anti-HA co-IP from muscle, MS; CTRL 2"}, "[26]": {"target": "Carnitine O-palmitoyltransferase 1, muscle isoform (Mus musculus) (UniProt Q924X2)", "test": "anti-HA co-IP from muscle, MS; CTRL 4"}, "[27]": {"target": "MICOS complex subunit Mic60 (Mus musculus) (UniProt Q8CAQ8)", "test": "anti-HA co-IP from muscle, MS; CTRL 4"}, "[28]": {"target": "Phosphorylase b kinase regulatory subunit beta (Mus musculus) (UniProt Q7TSH2)", "test": "anti-HA co-IP from muscle, MS; CTRL 4"}, "[29]": {"target": "Trifunctional enzyme subunit beta, mitochondrial (Mus musculus) (UniProt Q99JY0)", "test": "anti-HA co-IP from muscle, MS; CTRL 4"}, "[30]": {"target": "Annexin A6 (Mus musculus) (UniProt P14824)", "test": "anti-HA co-IP from muscle, MS; CTRL 5"}, "[31]": {"target": "Biglycan (Mus musculus) (UniProt P28653)", "test": "anti-HA co-IP from muscle, MS; CTRL 5"}, "[32]": {"target": "Eukaryotic translation initiation factor 5B (Mus musculus) (UniProt Q05D44)", "test": "anti-HA co-IP from muscle, MS; CTRL 5"}, "[33]": {"target": "Phosphorylase b kinase regulatory subunit alpha, skeletal muscle isoform (Mus musculus) (UniProt P18826)", "sequence (P18826 whole entry, canonical isoform)": "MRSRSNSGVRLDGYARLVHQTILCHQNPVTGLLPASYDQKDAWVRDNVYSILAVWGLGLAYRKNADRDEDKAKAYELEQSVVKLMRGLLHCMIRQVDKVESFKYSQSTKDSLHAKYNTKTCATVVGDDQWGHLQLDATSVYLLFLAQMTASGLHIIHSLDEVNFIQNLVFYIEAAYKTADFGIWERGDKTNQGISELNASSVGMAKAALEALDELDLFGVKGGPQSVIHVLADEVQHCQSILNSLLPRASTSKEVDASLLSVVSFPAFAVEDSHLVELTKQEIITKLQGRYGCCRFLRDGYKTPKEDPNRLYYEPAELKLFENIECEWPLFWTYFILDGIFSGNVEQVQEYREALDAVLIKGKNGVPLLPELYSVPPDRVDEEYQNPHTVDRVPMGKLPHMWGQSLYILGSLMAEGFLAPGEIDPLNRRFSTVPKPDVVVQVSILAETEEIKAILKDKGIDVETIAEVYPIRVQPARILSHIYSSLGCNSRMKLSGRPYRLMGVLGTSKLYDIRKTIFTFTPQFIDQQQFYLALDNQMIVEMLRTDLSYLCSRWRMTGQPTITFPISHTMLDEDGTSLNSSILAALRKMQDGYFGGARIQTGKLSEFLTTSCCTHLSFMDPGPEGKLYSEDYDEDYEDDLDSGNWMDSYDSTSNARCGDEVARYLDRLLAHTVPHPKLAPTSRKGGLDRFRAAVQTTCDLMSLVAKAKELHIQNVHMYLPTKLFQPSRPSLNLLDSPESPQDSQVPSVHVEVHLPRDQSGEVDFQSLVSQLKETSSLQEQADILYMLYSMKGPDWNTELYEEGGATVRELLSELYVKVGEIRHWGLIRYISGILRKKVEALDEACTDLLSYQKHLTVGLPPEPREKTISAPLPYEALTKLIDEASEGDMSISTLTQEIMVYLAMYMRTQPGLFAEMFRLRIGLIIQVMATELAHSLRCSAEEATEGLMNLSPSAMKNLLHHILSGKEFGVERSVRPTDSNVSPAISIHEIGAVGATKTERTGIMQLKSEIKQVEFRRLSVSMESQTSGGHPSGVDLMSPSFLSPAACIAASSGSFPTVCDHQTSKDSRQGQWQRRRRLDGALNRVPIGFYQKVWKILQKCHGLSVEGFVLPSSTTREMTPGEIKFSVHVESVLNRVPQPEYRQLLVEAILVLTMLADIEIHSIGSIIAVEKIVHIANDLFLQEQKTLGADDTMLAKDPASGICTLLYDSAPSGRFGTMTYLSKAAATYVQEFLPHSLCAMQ", "test": "anti-HA co-IP from muscle, MS; CTRL 5"}, "[34]": {"target": "Spectrin alpha chain, non-erythrocytic 1 (Mus musculus) (UniProt P16546)", "test": "anti-HA co-IP from muscle, MS; CTRL 5"}, "[35]": {"target": "Spectrin beta chain, non-erythrocytic 1 (Mus musculus) (UniProt Q62261)", "test": "anti-HA co-IP from muscle, MS; CTRL 5"}, "[36]": {"target": "Striated muscle-specific serine/threonine-protein kinase (Mus musculus) (UniProt Q62407)", "test": "anti-HA co-IP from muscle, MS; CTRL 5"}, "[37]": {"target": "Dystrophin (Mus musculus) (UniProt P11531)", "sequence (P11531 whole entry)": "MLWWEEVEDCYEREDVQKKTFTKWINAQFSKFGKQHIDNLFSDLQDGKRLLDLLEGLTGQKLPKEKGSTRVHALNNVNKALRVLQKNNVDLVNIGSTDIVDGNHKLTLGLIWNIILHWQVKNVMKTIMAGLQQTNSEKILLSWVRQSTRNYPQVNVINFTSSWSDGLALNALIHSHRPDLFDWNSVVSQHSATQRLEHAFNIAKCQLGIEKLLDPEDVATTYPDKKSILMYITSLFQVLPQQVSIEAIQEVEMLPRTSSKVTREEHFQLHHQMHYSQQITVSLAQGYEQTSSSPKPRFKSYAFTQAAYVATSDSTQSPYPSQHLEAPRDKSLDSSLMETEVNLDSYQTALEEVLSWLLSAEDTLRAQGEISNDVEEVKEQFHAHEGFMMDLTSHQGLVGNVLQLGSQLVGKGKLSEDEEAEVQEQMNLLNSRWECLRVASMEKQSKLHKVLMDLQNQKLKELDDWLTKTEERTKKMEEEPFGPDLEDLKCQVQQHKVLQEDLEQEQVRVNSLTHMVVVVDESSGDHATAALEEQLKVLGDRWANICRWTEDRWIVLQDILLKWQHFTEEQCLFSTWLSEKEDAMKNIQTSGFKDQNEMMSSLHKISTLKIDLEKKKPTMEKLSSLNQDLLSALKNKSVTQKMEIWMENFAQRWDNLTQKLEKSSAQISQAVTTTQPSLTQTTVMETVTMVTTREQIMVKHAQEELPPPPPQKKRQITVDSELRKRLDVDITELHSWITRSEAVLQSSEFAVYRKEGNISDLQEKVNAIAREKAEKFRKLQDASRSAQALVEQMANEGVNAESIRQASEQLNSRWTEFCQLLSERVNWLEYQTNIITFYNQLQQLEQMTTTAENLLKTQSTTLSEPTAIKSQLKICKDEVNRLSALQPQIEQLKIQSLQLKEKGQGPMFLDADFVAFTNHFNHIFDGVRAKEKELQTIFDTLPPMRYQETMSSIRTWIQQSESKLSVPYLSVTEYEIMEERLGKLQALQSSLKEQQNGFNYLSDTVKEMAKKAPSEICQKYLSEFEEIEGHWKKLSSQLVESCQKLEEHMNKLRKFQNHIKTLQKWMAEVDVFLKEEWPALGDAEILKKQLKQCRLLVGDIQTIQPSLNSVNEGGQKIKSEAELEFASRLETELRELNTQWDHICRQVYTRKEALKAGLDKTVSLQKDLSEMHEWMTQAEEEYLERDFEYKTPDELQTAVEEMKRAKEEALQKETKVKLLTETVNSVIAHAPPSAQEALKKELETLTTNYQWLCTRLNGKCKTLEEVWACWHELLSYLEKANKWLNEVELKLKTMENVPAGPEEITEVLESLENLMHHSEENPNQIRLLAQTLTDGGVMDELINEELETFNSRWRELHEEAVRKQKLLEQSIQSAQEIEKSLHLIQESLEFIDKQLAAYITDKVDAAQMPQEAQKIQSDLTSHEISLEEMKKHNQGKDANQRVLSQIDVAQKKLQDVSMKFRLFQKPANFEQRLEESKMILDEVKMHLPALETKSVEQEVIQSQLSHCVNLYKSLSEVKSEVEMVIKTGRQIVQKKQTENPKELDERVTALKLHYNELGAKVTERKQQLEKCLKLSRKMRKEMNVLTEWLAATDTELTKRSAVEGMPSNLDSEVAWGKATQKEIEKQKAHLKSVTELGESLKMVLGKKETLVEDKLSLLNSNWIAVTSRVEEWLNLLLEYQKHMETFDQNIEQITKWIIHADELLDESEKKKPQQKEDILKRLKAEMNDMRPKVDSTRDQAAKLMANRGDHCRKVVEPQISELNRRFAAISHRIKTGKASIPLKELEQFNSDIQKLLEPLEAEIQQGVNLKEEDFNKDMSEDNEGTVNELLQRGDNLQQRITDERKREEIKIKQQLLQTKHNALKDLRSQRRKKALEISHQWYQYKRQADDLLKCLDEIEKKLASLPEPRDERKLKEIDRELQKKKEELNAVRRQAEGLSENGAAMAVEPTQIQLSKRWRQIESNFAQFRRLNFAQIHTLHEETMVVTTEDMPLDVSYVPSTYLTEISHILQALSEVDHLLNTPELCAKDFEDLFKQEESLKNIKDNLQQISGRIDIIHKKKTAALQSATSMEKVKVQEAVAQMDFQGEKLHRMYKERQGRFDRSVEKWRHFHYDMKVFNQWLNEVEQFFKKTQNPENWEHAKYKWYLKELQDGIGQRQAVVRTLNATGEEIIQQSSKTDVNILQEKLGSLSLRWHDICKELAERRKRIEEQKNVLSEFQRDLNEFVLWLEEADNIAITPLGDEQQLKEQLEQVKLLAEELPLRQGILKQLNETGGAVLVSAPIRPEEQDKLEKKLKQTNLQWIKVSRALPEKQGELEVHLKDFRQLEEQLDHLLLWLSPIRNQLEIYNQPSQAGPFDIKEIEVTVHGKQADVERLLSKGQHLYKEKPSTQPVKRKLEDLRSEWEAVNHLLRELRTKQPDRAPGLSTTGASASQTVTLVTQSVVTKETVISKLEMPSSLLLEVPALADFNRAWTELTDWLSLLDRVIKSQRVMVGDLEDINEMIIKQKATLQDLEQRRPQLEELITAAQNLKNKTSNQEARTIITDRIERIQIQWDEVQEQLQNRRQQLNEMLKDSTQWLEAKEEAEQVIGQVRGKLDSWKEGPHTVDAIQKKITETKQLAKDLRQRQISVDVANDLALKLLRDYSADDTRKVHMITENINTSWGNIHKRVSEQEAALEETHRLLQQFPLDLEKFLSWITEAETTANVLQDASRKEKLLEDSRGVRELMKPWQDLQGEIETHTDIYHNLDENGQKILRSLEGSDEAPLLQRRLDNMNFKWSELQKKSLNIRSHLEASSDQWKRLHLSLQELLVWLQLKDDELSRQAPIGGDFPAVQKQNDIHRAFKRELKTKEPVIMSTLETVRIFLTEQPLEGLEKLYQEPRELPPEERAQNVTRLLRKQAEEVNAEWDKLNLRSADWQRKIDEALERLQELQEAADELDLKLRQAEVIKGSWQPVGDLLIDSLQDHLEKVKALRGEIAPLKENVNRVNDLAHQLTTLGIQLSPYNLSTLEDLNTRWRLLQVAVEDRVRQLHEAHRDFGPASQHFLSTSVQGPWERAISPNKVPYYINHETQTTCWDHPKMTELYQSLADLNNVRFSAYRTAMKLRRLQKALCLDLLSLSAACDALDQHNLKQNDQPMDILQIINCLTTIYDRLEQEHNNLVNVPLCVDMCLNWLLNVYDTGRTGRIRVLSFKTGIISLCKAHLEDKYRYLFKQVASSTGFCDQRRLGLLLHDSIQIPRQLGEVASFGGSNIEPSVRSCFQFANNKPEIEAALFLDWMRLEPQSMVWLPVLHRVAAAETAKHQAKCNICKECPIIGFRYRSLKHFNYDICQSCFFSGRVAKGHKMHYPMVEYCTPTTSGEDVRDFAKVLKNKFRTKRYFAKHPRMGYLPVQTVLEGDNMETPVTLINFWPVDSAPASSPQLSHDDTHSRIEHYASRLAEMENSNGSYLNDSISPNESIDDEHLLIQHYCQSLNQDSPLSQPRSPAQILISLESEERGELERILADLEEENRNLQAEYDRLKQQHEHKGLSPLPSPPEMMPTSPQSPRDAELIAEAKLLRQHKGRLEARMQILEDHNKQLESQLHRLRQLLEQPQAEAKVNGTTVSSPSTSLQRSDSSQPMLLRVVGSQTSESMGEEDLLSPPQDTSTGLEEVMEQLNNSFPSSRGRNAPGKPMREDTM", "test": "anti-HA co-IP from muscle, MS; CTRL 6"}, "[38]": {"target": "Sodium/potassium-transporting ATPase subunit alpha-2 (Mus musculus) (UniProt Q6PIE5)", "test": "anti-HA co-IP from muscle, MS; CTRL 6"}}}
{"substance": "human BVES fused with 3xHA tag (from UniProt Q8NE79 1-360)", "values": [{"measurement": "AAV9-BVES-HA (IP-MS count)", "setting": "[1]", "result": 5}, {"measurement": "AAV9-BVES-HA (IP-MS count)", "setting": "[2]", "result": 3}, {"measurement": "AAV9-BVES-HA (IP-MS count)", "setting": "[3]", "result": 6}, {"measurement": "AAV9-BVES-HA (IP-MS count)", "setting": "[4]", "result": 4}, {"measurement": "AAV9-BVES-HA (IP-MS count)", "setting": "[5]", "result": 2}, {"measurement": "AAV9-BVES-HA (IP-MS count)", "setting": "[6]", "result": 2}, {"measurement": "AAV9-BVES-HA (IP-MS count)", "setting": "[7]", "result": 4}, {"measurement": "AAV9-BVES-HA (IP-MS count)", "setting": "[8]", "result": 2}, {"measurement": "AAV9-BVES-HA (IP-MS count)", "setting": "[9]", "result": 2}, {"measurement": "AAV9-BVES-HA (IP-MS count)", "setting": "[10]", "result": 2}, {"measurement": "AAV9-BVES-HA (IP-MS count)", "setting": "[11]", "result": 12}, {"measurement": "AAV9-BVES-HA (IP-MS count)", "setting": "[12]", "result": 4}, {"measurement": "AAV9-BVES-HA (IP-MS count)", "setting": "[13]", "result": 11}, {"measurement": "AAV9-BVES-HA (IP-MS count)", "setting": "[14]", "result": 19}, {"measurement": "AAV9-BVES-HA (IP-MS count)", "setting": "[15]", "result": 7}, {"measurement": "AAV9-BVES-HA (IP-MS count)", "setting": "[16]", "result": 6}, {"measurement": "AAV9-BVES-HA (IP-MS count)", "setting": "[17]", "result": 6}, {"measurement": "AAV9-BVES-HA (IP-MS count)", "setting": "[18]", "result": 11}, {"measurement": "AAV9-BVES-HA (IP-MS count)", "setting": "[19]", "result": 41}, {"measurement": "AAV9-BVES-HA (IP-MS count)", "setting": "[20]", "result": 8}, {"measurement": "AAV9-BVES-HA (IP-MS count)", "setting": "[21]", "result": 6}, {"measurement": "AAV9-BVES-HA (IP-MS count)", "setting": "[22]", "result": 7}, {"measurement": "AAV9-BVES-HA (IP-MS count)", "setting": "[23]", "result": 6}, {"measurement": "AAV9-BVES-HA (IP-MS count)", "setting": "[24]", "result": 9}, {"measurement": "AAV9-BVES-HA (IP-MS count)", "setting": "[25]", "result": 6}, {"measurement": "AAV9-BVES-HA (IP-MS count)", "setting": "[26]", "result": 24}, {"measurement": "AAV9-BVES-HA (IP-MS count)", "setting": "[27]", "result": 15}, {"measurement": "AAV9-BVES-HA (IP-MS count)", "setting": "[28]", "result": 18}, {"measurement": "AAV9-BVES-HA (IP-MS count)", "setting": "[29]", "result": 13}, {"measurement": "AAV9-BVES-HA (IP-MS count)", "setting": "[30]", "result": 17}, {"measurement": "AAV9-BVES-HA (IP-MS count)", "setting": "[31]", "result": 16}, {"measurement": "AAV9-BVES-HA (IP-MS count)", "setting": "[32]", "result": 14}, {"measurement": "AAV9-BVES-HA (IP-MS count)", "setting": "[33]", "result": 23}, {"measurement": "AAV9-BVES-HA (IP-MS count)", "setting": "[34]", "result": 24}, {"measurement": "AAV9-BVES-HA (IP-MS count)", "setting": "[35]", "result": 19}, {"measurement": "AAV9-BVES-HA (IP-MS count)", "setting": "[36]", "result": 16}, {"measurement": "AAV9-BVES-HA (IP-MS count)", "setting": "[37]", "result": 77}, {"measurement": "AAV9-BVES-HA (IP-MS count)", "setting": "[38]", "result": 41}]}
